According to PMC3048092:

Biological target: FITC-BAD pSAHB-2
Test: cross-linking

Q: BCL-XLΔC (domain or fragment) was tested. Which crosslinking conversion at 2 hours of UV exposure did it give?
A: 35%
